Assays:
Assay in all cases: G' assay
[1] = biological target: T1, GST-APXL-1 PDZ domain 1 (Homo sapiens (Human)), Q13796
T1 chain: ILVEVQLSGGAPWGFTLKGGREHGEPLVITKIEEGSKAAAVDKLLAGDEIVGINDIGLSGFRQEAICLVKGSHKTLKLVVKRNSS

[2] = biological target: GST-PAR3 PDZ domain 3 (Homo sapiens (Human)), Q8TEW0
[3] = biological target: T2, GST-PTPL1 PDZ domain 4 (Homo sapiens (Human)), Q12923
T2 chain: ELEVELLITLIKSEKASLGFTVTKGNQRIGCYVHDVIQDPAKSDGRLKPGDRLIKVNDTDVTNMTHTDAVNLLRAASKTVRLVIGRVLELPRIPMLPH

[4] = biological target: GST-KIAA807 [GST: P08515]
Chain of GST-KIAA807 [GST: P08515] (P08515 whole entry, the tested form may be a part): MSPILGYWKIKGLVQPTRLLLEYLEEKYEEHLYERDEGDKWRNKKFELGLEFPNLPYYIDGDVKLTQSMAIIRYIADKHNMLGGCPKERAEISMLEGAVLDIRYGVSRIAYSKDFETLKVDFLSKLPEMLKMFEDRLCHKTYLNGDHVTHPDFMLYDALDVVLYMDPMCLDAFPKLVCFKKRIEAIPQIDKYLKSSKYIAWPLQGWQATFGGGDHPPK

[5] = biological target: T3, GST-Shank 1 PDZ domain 1 (Homo sapiens (Human)), Q9UPX8
T3 chain: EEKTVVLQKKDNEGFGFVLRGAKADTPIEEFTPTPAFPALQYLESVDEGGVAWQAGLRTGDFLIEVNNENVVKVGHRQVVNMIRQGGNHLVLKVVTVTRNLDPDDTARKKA

[6] = biological target: T4, GST-KIAA0807(S) PDZ domain 1 (Homo sapiens (Human)), Q6P0Q8
T4 chain: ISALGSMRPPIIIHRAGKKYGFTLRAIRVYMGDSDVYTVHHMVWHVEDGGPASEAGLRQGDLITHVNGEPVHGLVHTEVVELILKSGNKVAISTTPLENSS

[7] = biological target: T5, GST-KIAA0382 PDZ domain 1 (Canis lupus familiaris (Dog) (Canis familiaris)), A0A8I3
T5 chain: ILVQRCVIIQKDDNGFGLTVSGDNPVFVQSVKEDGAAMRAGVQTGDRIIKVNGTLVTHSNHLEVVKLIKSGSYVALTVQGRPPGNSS

[8] = biological target: T6, GST-KIAA0973 PDZ domain 1 (Homo sapiens (Human)), Q9Y2H9
T6 chain: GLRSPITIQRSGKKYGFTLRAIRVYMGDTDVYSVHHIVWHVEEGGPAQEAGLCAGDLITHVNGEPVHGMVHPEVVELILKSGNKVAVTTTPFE

[9] = biological target: T7, GST-AIPC PDZ domain 1 (Homo sapiens (Human)), O15018
T7 chain: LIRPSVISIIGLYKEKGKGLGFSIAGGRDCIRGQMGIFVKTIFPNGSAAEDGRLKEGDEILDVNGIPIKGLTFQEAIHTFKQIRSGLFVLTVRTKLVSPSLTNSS

[10] = biological target: T8, GST-MINT1 PDZ domains 1, 2, Q02410
T8 chain: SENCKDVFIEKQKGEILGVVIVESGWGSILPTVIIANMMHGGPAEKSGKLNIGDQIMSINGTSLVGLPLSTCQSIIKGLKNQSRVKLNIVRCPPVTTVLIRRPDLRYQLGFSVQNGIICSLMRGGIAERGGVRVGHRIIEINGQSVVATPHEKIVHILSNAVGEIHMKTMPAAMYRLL

[11] = biological target: T9, GST-KIAA1526 PDZ domain 1 (Homo sapiens (Human)), Q9P202
T9 chain: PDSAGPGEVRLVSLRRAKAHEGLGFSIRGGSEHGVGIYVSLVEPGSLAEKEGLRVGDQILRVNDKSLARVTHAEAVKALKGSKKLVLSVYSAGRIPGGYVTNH

[12] = biological target: T10, GST-KIAA1634 PDZ domain 2 (Homo sapiens (Human)), Q5TCQ9
T10 chain: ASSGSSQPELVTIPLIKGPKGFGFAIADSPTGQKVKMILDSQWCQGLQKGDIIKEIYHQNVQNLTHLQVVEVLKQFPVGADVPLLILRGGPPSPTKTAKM

[13] = biological target: T11, GST-PTPL1 PDZ domain 2 (Homo sapiens (Human)), Q12923
T11 chain: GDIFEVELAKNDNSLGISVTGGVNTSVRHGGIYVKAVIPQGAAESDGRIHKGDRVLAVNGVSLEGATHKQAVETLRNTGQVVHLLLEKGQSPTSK

[14] = biological target: GST-DLG1 PDZ domains 1, 2 (Homo sapiens), Q12959
[15] = biological target: GST-PSD95 PDZ domains 1, 2, 3 (Homo sapiens), P78352
Chain of GST-PSD95 PDZ domains 1, 2, 3 (Homo sapiens), P78352 (P78352 62-395): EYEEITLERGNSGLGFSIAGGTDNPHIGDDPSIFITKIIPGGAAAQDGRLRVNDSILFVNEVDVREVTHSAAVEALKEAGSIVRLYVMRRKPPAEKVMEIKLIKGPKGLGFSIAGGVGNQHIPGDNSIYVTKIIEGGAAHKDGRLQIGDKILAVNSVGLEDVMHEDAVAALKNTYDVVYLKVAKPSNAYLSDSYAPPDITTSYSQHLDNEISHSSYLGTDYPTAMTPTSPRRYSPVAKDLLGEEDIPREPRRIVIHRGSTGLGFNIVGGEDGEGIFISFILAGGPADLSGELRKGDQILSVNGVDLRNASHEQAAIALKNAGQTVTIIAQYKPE

[16] = biological target: T12, GST-NeDLG PDZ domains 1, 2, Q92796
T12 chain: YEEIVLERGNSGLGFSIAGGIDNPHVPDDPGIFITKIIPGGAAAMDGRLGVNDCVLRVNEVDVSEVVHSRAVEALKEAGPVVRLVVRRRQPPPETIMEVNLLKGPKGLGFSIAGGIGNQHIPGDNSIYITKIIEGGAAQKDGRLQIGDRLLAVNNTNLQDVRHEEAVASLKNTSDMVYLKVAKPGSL

[17] = biological target: T13, GST-TIP1 PDZ domain 1 (Table 9 insert) (Homo sapiens (Human)), O14907
T13 chain: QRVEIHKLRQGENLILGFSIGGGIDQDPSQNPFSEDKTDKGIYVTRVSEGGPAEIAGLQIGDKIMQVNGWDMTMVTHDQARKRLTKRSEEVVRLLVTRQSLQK

[18] = biological target: T14, GST-DLG1 PDZ domain 2 (Homo sapiens), Q12959
T14 chain: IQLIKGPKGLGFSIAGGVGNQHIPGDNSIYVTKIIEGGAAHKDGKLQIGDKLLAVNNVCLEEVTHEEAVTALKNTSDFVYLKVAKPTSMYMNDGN

[19] = biological target: GST-KIAA1634 PDZ domain 1 (Homo sapiens (Human)), Q5TCQ9
Chain of GST-KIAA1634 PDZ domain 1 (Homo sapiens (Human)), Q5TCQ9 (Q5TCQ9 401-502): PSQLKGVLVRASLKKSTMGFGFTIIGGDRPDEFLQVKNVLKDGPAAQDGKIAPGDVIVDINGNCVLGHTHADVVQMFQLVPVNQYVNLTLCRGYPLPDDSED

[20] = biological target: GST-KIAA0147 PDZ domain 1 (Homo sapiens (Human)), Q14160
Chain of GST-KIAA0147 PDZ domain 1 (Homo sapiens (Human)), Q14160 (Q14160 other isoform, or with tags, fused parts or gaps): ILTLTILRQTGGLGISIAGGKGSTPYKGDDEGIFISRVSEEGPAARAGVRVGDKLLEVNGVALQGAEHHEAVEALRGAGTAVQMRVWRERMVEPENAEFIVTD

[21] = biological target: T15, GST-MUPP1 PDZ domain 10 (Homo sapiens (Human)), O75970
T15 chain: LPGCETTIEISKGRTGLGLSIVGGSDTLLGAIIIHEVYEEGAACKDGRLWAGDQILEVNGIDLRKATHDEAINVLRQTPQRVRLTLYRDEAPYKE

[22] = biological target: T16, GST-LIM-RIL PDZ domain 1 (Homo sapiens (Human)), P50479
T16 chain: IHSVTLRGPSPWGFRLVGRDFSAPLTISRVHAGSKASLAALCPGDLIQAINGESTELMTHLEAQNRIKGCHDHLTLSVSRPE

[23] = biological target: T17, GST-MINT1 PDZ domain 2 (Mus musculus (Mouse)), B2RUJ5
T17 chain: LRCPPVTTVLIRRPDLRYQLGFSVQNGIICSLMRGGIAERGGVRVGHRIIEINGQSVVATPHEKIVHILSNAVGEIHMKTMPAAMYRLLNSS

[24] = biological target: T18, GST-INADL PDZ domain 8 (Homo sapiens (Human)), Q8NI35
T18 chain: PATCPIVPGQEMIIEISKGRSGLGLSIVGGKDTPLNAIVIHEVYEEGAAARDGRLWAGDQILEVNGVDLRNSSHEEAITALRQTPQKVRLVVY

[25] = biological target: GST-BAI-1 Associated Protein PDZ domain 2 (Mus musculus (Mouse)), Q6RHR9
Chain of GST-BAI-1 Associated Protein PDZ domain 2 (Mus musculus (Mouse)), Q6RHR9 (Q6RHR9 455-558): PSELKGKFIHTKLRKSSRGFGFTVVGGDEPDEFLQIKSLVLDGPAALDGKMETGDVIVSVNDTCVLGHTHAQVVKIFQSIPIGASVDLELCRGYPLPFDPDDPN
Note: key of the grades not given here.

Chain of GST-PAR3 PDZ domain 3 (Homo sapiens (Human)), Q8TEW0 (Q8TEW0 579-681): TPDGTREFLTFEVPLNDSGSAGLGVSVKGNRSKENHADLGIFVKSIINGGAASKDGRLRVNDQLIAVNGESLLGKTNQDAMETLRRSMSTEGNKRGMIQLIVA

RPMESNPDTEGAQGETEDVL (modifications not checked) [parathyroid hormone receptor 2]
Classification [1]: 1 A450 class
Classification [2]: 1 A450 class

ESKSFTRSTVDTMAQKTQAV (modifications not checked) [C5 Anaphylatoxin receptor]
Classification [3]: 1 A450 class

KDSRPSFVGSSSGHTSTTL (modifications not checked) [CDw128B]
Classification [4]: 5 A450 class
Classification [5]: 3 A450 class
Classification [6]: 5 A450 class
Classification [7]: 2 A450 class

NSYVRDDAIFIKAIVDLTGL (modifications not checked) [TRAF2]
Classification [4]: 2 A450 class
Classification [8]: 1 A450 class
Classification [6]: 4 A450 class

VISKATPALPTVSISSSAEV (modifications not checked) [Clasp-1]
Classification [9]: 1 A450 class
Classification [4]: 1 A450 class
Classification [10]: 1 A450 class
Classification [6]: 1 A450 class

SPQPDSTDNDDYDDISAA (modifications not checked) [CD6]
Classification [4]: 1 A450 class
Classification [6]: 1 A450 class

SSPTYRALLLQGPSQSSSEA (modifications not checked) [GAIP (G-alpha interacting protein) RGS 19]
Classification [11]: 1 A450 class

IVFIIHSFLSAKVTRLGLLA (modifications not checked) [alpha-1-syntrophin]
Classification [6]: 1 A450 class

HPTDITGLPNLSDPSVSTVV (modifications not checked) [NMDA R2C]
Classification [12]: 1 A450 class
Classification [13]: 1 A450 class
Classification [14]: 1 A450 class
Classification [15]: 1 A450 class
Classification [16]: 2 A450 class

GPDGIITVNDFTQNPRVQLE (modifications not checked) [ropporin]
Classification [17]: 1 A450 class

VDPNSPAAKKKYVSYNNLVI (modifications not checked) [GLUR7 (metabotropic glutamate receptor)]
Classification [18]: 1 A450 class
Classification [19]: 1 A450 class
Classification [2]: 2 A450 class

KPQIAALKEETEEEVQDTRL (modifications not checked) [CFTCR (cystic fibrosis transmembrane conductance regulator)]
Classification [4]: 1 A450 class
Classification [5]: 1 A450 class
Classification [6]: 2 A450 class

LLNVLQRQELGDGLDDEIAV (modifications not checked) [CAPON (carboxyl-terminal PDZ ligand of neuronal nitric oxide synthase) mRNA]
Classification [9]: 1 A450 class
Classification [4]: 1 A450 class
Classification [1]: 1 A450 class
Classification [6]: 1 A450 class
Classification [3]: 1 A450 class
Classification [2]: 1 A450 class

PYQSQGFSTEEDEDEQVSAV (modifications not checked) [RA-GEF (ras/rap1A-assoc-GEF)]
Classification [12]: 2 A450 class
Classification [13]: 4 A450 class
Classification [20]: 1 A450 class

INSVGSTASSSQPLLVHDDV (modifications not checked) [c-kit receptor]
Classification [21]: 1 A450 class
Classification [22]: 1 A450 class
Classification [23]: 1 A450 class
Classification [24]: 1 A450 class

PRLKRMQQFEDLEDEIPQFV (modifications not checked) [RhoGAP 1 (PTPL1-associated)]
Classification [3]: 2 A450 class

ENLELPVNPSSVVSERISSV (modifications not checked) [serotonin receptor 5-HT-2C]
Classification [21]: 1 A450 class
Classification [24]: 1 A450 class

GGEDFKTTNPSKQFDKNAYV (modifications not checked) [claudin 10]
Classification [14]: 1 A450 class
Classification [19]: 1 A450 class

DGGARTEDEVQSYPSKHDYV (modifications not checked) [claudin 18]
Classification [10]: 1 A450 class

SYPTPRPYPKPAPSSGKDYV (modifications not checked) [claudin 1]
Classification [23]: 1 A450 class
Classification [24]: 1 A450 class

LGYSIPSRSGASGLDKRDYV (modifications not checked) [claudin 9]
Classification [10]: 1 A450 class

KAGYRAPRSYPKSNSSKEYV (modifications not checked) [claudin 7]
Classification [10]: 4 A450 class

QQYQQRQSVIFHKRAPEQAL (modifications not checked) [muscarinic Ach receptor M4]
Classification [9]: 1 A450 class
Classification [4]: 1 A450 class
Classification [1]: 1 A450 class
Classification [6]: 1 A450 class

RDSFHRSSFRKAETQLSQGS (modifications not checked) [Clasp-5]
Classification [4]: 1 A450 class
Classification [5]: 1 A450 class
Classification [6]: 1 A450 class
Classification [25]: 1 A450 class
